# Assay results from patent publication US20120315271A1 (Pfizer, published 2012).
# B1: Fab fragment of humanized anti-NGF antibody E3 (Fab, V domains shown)
# VH: QVQLQESGPGLVKPSETLSLTCTVSGFSLIGYDLNWIRQPPGKGLEWIGIIWGDGTTDYNSAVKSRVTISKDTSKNQFSLKLSSVTAADTAVYYCARGGYWYATSYYFDYWGQGTLVTVS
# VL: DIQMTQSPSSLSASVGDRVTITCRASQSISNNLNWYQQKPGKAPKLLIYYTSRFHSGVPSRFSGSGSGTDFTFTISSLQPEDIATYYCQQEHTLPYTFGQGTKLEIK
# notes: Full antibody E3 has a human IgG2a heavy chain constant region with A330P331 to S330S331 and a human kappa light chain constant region
# Biological target: T1, human nerve growth factor (human, UniProt P01138 122-241, limits assumed)
# T1 construct: also called human NGF; hNGF
# Assay: binding affinity measured with the Fab fragment; method not stated at this place (general BIAcore SPR protocol in paragraph 87); Fab, not IgG
# Method: To obtain monofunctional Fab fragments, an antibody (for example, IgG) can be cleaved with papain or expressed recombinantly. […] The concentrations of the Fab proteins are determined by ELISA and/or SDS-PAGE electrophoresis using a Fab of known concentration (as determined by amino acid analysis) as a standard. […] Equilibrium dissociation constant (KD) values are calculated as koff/kₒₙ.
# T1 sequence (P01138 122-241 limits assumed): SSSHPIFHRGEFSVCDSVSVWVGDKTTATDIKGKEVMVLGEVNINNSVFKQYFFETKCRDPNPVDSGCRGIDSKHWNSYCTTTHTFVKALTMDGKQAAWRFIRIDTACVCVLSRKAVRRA
binder,measurement,value
B1,Kd,~0.07 nM
